These results are taken from patent US20210206877A1 (Genentech, published 2021).

B1: 5930 (antibody, V domains shown)
VH: QVQLVQSGAEVKKPGSSVKVSCKASGGTLSGYAISWVRQAPGQGLEWMGNIIPGFGTANYAQKSQGRVTITADESTSTAYMELSSLRSEDTAVYYCARSGGTRYGMLDVWGQGTMVTVSS
VL: EIVMTQSPATLSVSPGERATLSCRASQSVGSNLAWYQQKPGQAPRLLIYGASTRATGIPARFSGSGSGTEFTLTISSLQSEDFAVYYCQQLYTWPPRTFGGGTKVEIK
B2: 6274 (antibody, V domains shown)
VH: QVQLVQSGAEVKKPGSSVKVSCKASGGTFSGYGISWVRQAPGQGLEWMGNIIPGFGTANYAQKFQGRVTITADESTSTAYMELSSLRSEDTAVYYCARSGGTKYGMLDVWGQGTMVTVSS
VL: EIVMTQSPATLSVSPGERATLSCRASQSVSSHLAWYQQKPGQAPRLLIYGASTRATGIPARFSGSGSGTEFTLTISSLQSEDFAVYYCQQLILWPPRTFGGGTKVEIK
B3: 5990 (antibody, V domains shown)
VH: QLQLQESGPGLVKPSETLSLTCTVSGGSISWSSYYWSWIRQPPGKGLEWIGSIYRSGRTYYNPSLKSRVTISVDTSKNQFSLKLSSVTAADTAVYYCARVGHGINYFDLWGRGTLVTVSS
VL: EIVLTQSPATLSLSPGERATLSCRASRSVNSYLAWYQQKPGQAPRLLIYDASKRATGIPARFSGSGSGTDFTLTISSLEPEDFAVYYCQQVYTWPPRTFGGGTKVEIK
B4: 5982 (antibody, V domains shown)
VH: QLQLQESGPGLVKPSETLSLTCTVSGGSISSSSYYWGWIRQPPGKGLEWIGNIYYSGSTYYNPSLKSRVTISVDTSKNQFSLKLSSVTAADTAVYYCARLGHGYSYFDLWGRGTLVTVSS
VL: EIVLTQSPATLSLSPGERATLSCRASQSVSSYLAWFQQKPGQAPRLLIYDASNRATGIPARFSGSGSGTDFTLTISSLEPEDFAVYYCQQVYVWPPRTFGGGTKVEIK
B5: 6270 (antibody, V domains shown)
VH: QVQLVQSGAEVKKPGSSVKVSCKASGGTFSGYGISWVRQAPGQGLEWMGNIIPGFGTANYAQKFQGRVTITADESTSTAYMELSSLRSEDTAVYYCARSGGTKYGMLDVWGQGTMVTVSS
VL: EIVMTQSPATLSVSPGERATLSCRASQSVSSNLAWYQQKPGQAPRLLIYGASTRATGIPARFSGSGSGTEFTLTISSLQSEDFAVYYCQQLLLWPPRTFGGGTKVEIK
B6: 6276 (antibody, V domains shown)
VH: QVQLVQSGAEVKKPGSSVKVSCKASGGTFRGYAISWVRQAPGQGLEWMGNIIPGLSTANYAQKFQGRVTITADESTSTAYMELSSLRSEDTAVYYCARSGGTKYGMLDVWGQGTMVTVSS
VL: EIVMTQSPATLSVSPGERATLSCRASQSVSSNLAWYQQKPGQAPRLLIYGASTRATGIPARFSGSGSGTEFTLTISSLQSEDFAVYYCQQLILWPPRTFGGGTKVEIK
B7: 5986 (antibody, V domains shown)
VH: QLQLQESGPGLVKPSETLSLTCTVSGGSISSSSYYWGWIRQPPGKGLEWIGQIYYSGSTFYNPSLKSRVTISVDTSKNQFSLKLSSVTAADTAVYYCARLGHGYSYFDLWGRGTLVTVSS
VL: EIVLTQSPATLSLSPGERATLSCRASQSVSSYLAWFQQKPGQAPRLLIYDASNRATGIPARFSGSGSGTDFTLTISSLEPEDFAVYYCQQVYVWPPRTFGGGTKVEIK
B8: 6279 (antibody, V domains shown)
VH: QVQLVQSGAEVKKPGSSVKVSCKASGGTFRGYAISWVRQAPGQGLEWMGNIIPGFGTANYAQKFQGRVTITADESTSTAYMELSSLRSEDTAVYYCARSGGTKYGMLDVWGQGTMVTVSS
VL: EIVMTQSPATLSVSPGERATLSCRASQSVSSNLAWYQQKPGQAPRLLIYGASTRATGIPARFSGSGSGTEFTLTISSLQSEDFAVYYCQQLLLWPPRTFGGGTKVEIK
B9: 6275 (antibody, V domains shown)
VH: QVQLVQSGAEVKKPGSSVKVSCKASGGTFRGYAISWVRQAPGQGLEWMGNIIPGFGTANYAQKFQGRVTITADESTSTAYMELSSLRSEDTAVYYCARSGGTKYGMLDVWGQGTMVTVSS
VL: EIVMTQSPATLSVSPGERATLSCRASQSVSSNLAWYQQKPGQAPRLLIYGASTRATGIPARFSGSGSGTEFTLTISSLQSEDFAVYYCQQLFLWPPRTFGGGTKVEIK
B10: 6272 (antibody, V domains shown)
VH: QVQLVQSGAEVKKPGSSVKVSCKASGGTFSGYGISWVRQAPGQGLEWMGNIIPGFGTANYAQKFQGRVTITADESTSTAYMELSSLRSEDTAVYYCARSGGTKYGMLDVWGQGTMVTVSS
VL: EIVMTQSPATLSVSPGERATLSCRASQSVSSNLAWYQQKPGQAPRLLIYGASTRATGIPARFSGSGSGTEFTLTISSLQSEDFAVYYCQQLFLWPPRTFGGGTKVEIK
B11: 5931 (antibody, V domains shown)
VH: QLQLQESGPGLVKPSETLSLTCTVSGGSISWSSYYWSWIRQPPGKGLEWIGSIYRSGRTYYNPSLKGRVTISVDTSKNQFSLKLSSVTAADTAVYYCARVGHGINYFDLWGRGTLVTVSS
VL: EIVLTQSPATLSLSPGERATLSCRASQSVSSYLAWYQQKPGQAPRLLIYDASKRATGIPARFSGSGSGTDFTLTISSLEPEDFAVYYCQQVYTWPPRTFGGGTKVEIK
B12: 6271 (antibody, V domains shown)
VH: QVQLVQSGAEVKKPGSSVKVSCKASGGTISGYGISWVRQAPGQGLEWMGNIIPGFGTANYAQKFQGRVTITADESTSTAYMELSSLRSEDTAVYYCARSGGTKYGMLDVWGQGTMVTVSS
VL: EIVMTQSPATLSVSPGERATLSCRASQSVSSNLAWYQQKPGQAPRLLIYGASTRATGIPARFSGSGSGTEFTLTISSLQSEDFAVYYCQQLILWPPRTFGGGTKVEIK
B13: 5984 (antibody, V domains shown)
VH: QLQLQESGPGLVKPSETLSLTCTVSGGSISSSSYYWGWIRQPPGKGLEWIGNIYYSGSTYYNPSLKGRVTISVDTSKNQFSLKLSSVTAADTAVYYCARLGHGYNYFDLWGRGTLVTVSS
VL: EIVLTQSPATLSLSPGERATLSCRASQSVSSYLAWFQQKPGQAPRLLIYDASNRATGIPARFSGSGSGTDFTLTISSLEPEDFAVYYCQQVYVWPPRTFGGGTKVEIK
B14: 5983 (antibody, V domains shown)
VH: QLQLQESGPGLVKPSETLSLTCTVSGGSISSSSYYWGWIRQPPGKGLEWIGNIYYSGSTYYNPSLRSRVTISVDTSKNQFFLKLSSVTAADTAVYYCARLGHGYNYFDLWGRGTLVTVSS
VL: EIVLTQSPATLSLSPGERATLSCRASQSVSSYLAWFQQKPGQAPRLLIYDASNRATGIPARFSGSGSGTDFTLTISSLEPEDFAVYYCQQVYVWPPRTFGGGTKVEIK
B15: 5988 (antibody, V domains shown)
VH: QVQLVQSGAEVKKPGSSVKVSCKASGGTLSGYAISWVRQAPGQGLEWMGNIIPGFGTANYAQKSQGRVTITADESTSTAYMELSSLRSEDTAVYYCARSGGTRYGMLDVWGQGTMVTVSS
VL: GIVMTQSPATLSVSPGERATLSCRASQSVGSNLAWYQQKPGQAPRLLIYGASTRATGIPARFSGSGSGTEFTLTISSLQSEDFAVYYCQQLYTWPPRTFGGGTKVEIK
B16: 5985 (antibody, V domains shown)
VH: QLQLQESGPGLVKPSETLSLTCTVSGGSISSSSYYWGWIRQPPGKGLEWIGNIYYSGSTYYNPSLKSRVTISVDTSKNQFSLKLSSVTAADTAVYYCARLGHGYNYFDLWGRGTLVTVSS
VL: EIVLTQSPATLSLSPGERATLSCRASQSVSSYLAWFQQKPGQAPRLLIYDASNRATGIPARFSGSGSGTDFTLTISSLEPEDFAVYYCQQVYVWPPRTFGGGTKVEIK
B17: 6273 (antibody, V domains shown)
VH: QVQLVQSGAEVKKPGSSVKVSCKASGGTFSGYGISWVRQAPGQGLEWMGNIIPGFGTANYAQKFQGRVTITADESTSTAYMELSSLRSEDTAVYYCARSGGTKYGMLDVWGQGTMVTVSS
VL: EIVMTQSPATLSVSPGERATLSCRASQSVSSNIAWYQQKPGQAPRLLIYGASTRATGIPARFSGSGSGTEFTLTISSLQSEDFAVYYCQQLLLWPPRTFGGGTKVEIK
B18: 5932 (antibody, V domains shown)
VH: QLQLQESGPGLVKPSETLSLTCTVSGGSISRGSYYWGWIRQPPGKGLEWIGMIYYSGSTWYNPSLKSRVTISVDTSKNQFSLKLSSVTAADTAVYYCARVGHGISYFDLWGRGTLVTVSS
VL: EIVLTQSPATLSLSPGERATLSCRASQSVSSYLAWYQQKPGQAPRLLIYDASKRATGIPARFSGSGSGTDFTLTISSLEPEDFAVYYCQQVYTWPPRTFGGGTKVEIK
B19: 5933 (antibody, V domains shown)
VH: QLQLQESGPGLVKPSETLSLTCTVSGGSISRGSYYWGWIRQPPGKGLEWIGMIYYSGSTWYNPSLKSRVTISVDTSKNQFSLKLSSVTAADTAVYYCARVGHGVSYFDLWGRGTLVTVSS
VL: EIVLTQSPATLSLSPGERATLSCRASQSVSSYLAWYQQKPGQAPRLLIYGASKRATGIPARFSGSGSGTDFTLTISSLEPEDFAVYYCQQVYTWPPRTFGGGTKVEIK
B20: 5987 (antibody, V domains shown)
VH: QVQLVQSGAEVKKPGSSVKVSCKASGGTLSGYAISWVRQAPGQGLEWMGNIIPGFGTANYAQKSQGRVTITADESTSTAYMELSSLRSEDTAVYYCARSGGTRYGMLDVWGQGTMVTVSS
VL: EIVMTQSPATLSVSPGERATLSCRASQSVSSNLAWYQQKPGQAPRLLIYGASTRATGIPARFSGSGSGTEFTLTISSLQSEDFAVYYCQQLFLWPPRTFGGGTKVEIK

Chain of BACE1 endogenous to primary cortical neurons from E16.5 CD1 mice (P56818 46-501): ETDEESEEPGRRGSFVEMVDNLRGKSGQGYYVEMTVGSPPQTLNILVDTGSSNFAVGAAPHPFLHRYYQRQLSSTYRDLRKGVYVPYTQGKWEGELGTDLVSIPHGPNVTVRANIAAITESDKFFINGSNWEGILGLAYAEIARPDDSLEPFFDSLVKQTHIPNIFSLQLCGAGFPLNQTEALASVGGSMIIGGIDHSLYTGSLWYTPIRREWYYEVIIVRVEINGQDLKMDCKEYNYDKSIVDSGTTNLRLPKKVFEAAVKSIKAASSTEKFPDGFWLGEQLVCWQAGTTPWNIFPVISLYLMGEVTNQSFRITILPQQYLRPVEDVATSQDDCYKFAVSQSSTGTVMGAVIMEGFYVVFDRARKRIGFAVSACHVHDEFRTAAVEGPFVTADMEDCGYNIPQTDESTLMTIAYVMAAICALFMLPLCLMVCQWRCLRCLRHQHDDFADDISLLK

The assay addresses BACE1 endogenous to primary cortical neurons from E16.5 CD1 mice (mouse, UniProt P56818 46-501). Nature of the assay: cell-based or functional assay.
On to B1, for which the “max % inhibition, Abeta x-40 in mouse cortical neurons” value (“max % inhibition” for short) is 74%.
B2: the “max % inhibition” value was determined as 85%.
For B3 the value was 61%.
Take B4: the “max % inhibition” value was 71%.
For B5 the value was 85%.
Regarding B6, the “max % inhibition” value came out at 81%.
Regarding B7, the “max % inhibition” value amounted to 67%.
Take B8: the “max % inhibition” value worked out at 71%.
B9: the “max % inhibition” value came to 71%.
As for B10, the “max % inhibition” value stood at 82%.
With B11, the “max % inhibition” value was found to be 69%.
Consider B12, for which the “max % inhibition” value was 83%.
B13: the “max % inhibition” value is 70%.
As to B14, the “max % inhibition” value was determined as 72%.
The same measure for B15: 75%.
As to B16, the “max % inhibition” value amounted to 73%.
For B17, the “max % inhibition” value stood at 82%.
As for B18, the “max % inhibition” value worked out at 57%.
Regarding B19, the “max % inhibition” value amounted to 67%.
The same measure for B20: 69%.
